Assay results from patent US20150086558A1 (ACADEMIA SINICA, published 2015).

T1: P1.15 peptide SVNPGLAGGSAQS (human)
T1 peptide: SVNPGLAGGSAQS

T2: P1 peptide, junction peptide of CH4-CεmX (SVNPGLAGGSAQSQRAPDRVL) (human)
T2 construct: Synthetic peptide coated on ELISA plates at 10 ug/mL
T2 peptide: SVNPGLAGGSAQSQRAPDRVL

B1: monoclonal anti-IgE antibody mAb 2H9 (antibody, V domains shown)
VH: QVQMQQPGAELVRPGASVKMSCRTSGYTFTNYNVHWLKQTPGQGLEWIGGMYPGNDDILYNQNFKDRATLTADRSSSTAYIQLRSLTSEDSAVYYCTRSGLQGPWFDYWGQGTLVTVSA
VL: DIQMTQSSSYLSVSLGGRVTISCRASDHINNWLAWYQQKPGNAPRLLISSATSLETGVPSRFSGSGSGKDYSLTIISVQTEDVATYYCQQCWITPFTFGSGTKLEIK
notes: Mouse hybridoma monoclonal antibody from BALB/c mice immunized with HBcAg-P1; It was detected with anti-mouse IgG reagents
B2: monoclonal anti-IgE antibody mAb 5A8 (antibody, V domains shown)
VH: QVQLKQSGPGLVAPSQSLSITCTVSGFSLTDYGVNWVRQPPGKGLEWLGMIWGDGSTDYNSTLKSRLSISKDNSKSQVFLKINSLQTDDTARYYCALNWFAYWGQGTLVTAAA
VL: NIVMTQSPAIMSASPGEKVTMTCSASSSVNYMHWYQQKSGTSPKRWIYDTSKLASGVPARFSGSGSGTSYSLTISSMEAEDAATYYCQQWSSNPWTFGGGTKLEIK
notes: Mouse hybridoma monoclonal antibody; It was detected with anti-mouse IgG reagents

How the values were obtained:
[1] = molecular target: T3, IgE.CH3-CH4 recombinant protein (UniProt P01854 211-426, limits assumed); assay: ELISA on coated recombinant protein
T3 construct: domain: CH3-CH4; Recombinant protein coated at 1 ug/mL in ELISA
T3 sequence (P01854 211-426 limits assumed): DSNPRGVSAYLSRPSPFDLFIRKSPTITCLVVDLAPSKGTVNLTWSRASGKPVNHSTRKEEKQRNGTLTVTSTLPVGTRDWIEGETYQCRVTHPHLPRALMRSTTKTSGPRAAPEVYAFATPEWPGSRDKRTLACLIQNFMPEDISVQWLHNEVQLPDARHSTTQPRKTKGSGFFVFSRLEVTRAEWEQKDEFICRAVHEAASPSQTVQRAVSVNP

[2] = molecular target: T1, P1.15 peptide SVNPGLAGGSAQS; assay: ELISA on coated synthetic peptide
[3] = molecular target: T2, P1 peptide, junction peptide of …; assay: ELISA screen of hybridomas on coated P1 peptide
Experimental: Hybridoma cells secreting antibodies with the desired antigen-binding activities were screened as follows. Microtiter plates were coated by incubating with 10 μg/mL of P1 peptide and various other peptides or 1 μg/mL of various recombinant CεmX-fusion proteins in carbonate buffer, 0.1M, pH 9.6, overnight at 4° C. The wells were blocked with 1% BSA in PBS, pH=7.3 for 1 hour and incubated with the antisera or control antibodies at various dilutions for 1 hour at 37° C. After washing, the ligand-bound antibodies were detected by HRP-conjugated goat anti-mouse IgG, Fcγ fragment specific (Jackson ImmunoResearch) at 1:10,000 and incubated for 1 hour at 37° C., followed by incubation with TMB substrate (Clinical Scientific Products). The OD was determined at 450 nm. Positive clones were selected for further characterization.

| Binder | binding result [1] | binding result [2] | binding result [3] |
| --- | --- | --- | --- |
| B1 | no binding | binds | binds |
| B2 |  |  | binds |
